Data taken from US20220298218A1 (ANTAG THERAPEUTICS, published 2022).
*1 amine or outer side, *2 acyl side, *3 side chain or, on linkers, in order; H or OH if unused. Where no end group is shown, it is not given here. Side-chain parts run from the residue outwards. The star is where a group is joined. C18 diacid = O=C(O)CCCCCCCCCCCCCCCCC(=O)*; C16 diacid = O=C(O)CCCCCCCCCCCCCCC(=O)*; γGlu = O=C(O)[C@H](CCC(=O)[*:2])N[*:1]; AEEA = NCCOCCOCC(=O)O

T1: human GIP receptor (human, UniProt P48546 22-466)
T1 sequence (looked up): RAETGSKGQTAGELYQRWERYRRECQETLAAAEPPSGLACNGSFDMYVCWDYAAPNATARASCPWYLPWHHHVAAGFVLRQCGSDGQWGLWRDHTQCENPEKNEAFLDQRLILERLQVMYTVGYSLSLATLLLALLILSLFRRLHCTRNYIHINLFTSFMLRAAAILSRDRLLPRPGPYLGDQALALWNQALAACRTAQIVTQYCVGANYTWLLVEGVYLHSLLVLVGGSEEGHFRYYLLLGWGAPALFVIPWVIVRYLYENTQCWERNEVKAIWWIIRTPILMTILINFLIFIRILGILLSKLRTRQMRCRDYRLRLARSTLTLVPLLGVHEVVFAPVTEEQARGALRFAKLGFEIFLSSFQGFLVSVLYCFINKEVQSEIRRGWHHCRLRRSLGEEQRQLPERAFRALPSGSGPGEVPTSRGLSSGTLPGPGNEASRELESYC

B1: AT434 (peptide)
peptide: EGTFISDYSIAMDKIK([AEEA-AEEA-AEEA-γGlu-C18 diacid])QQDFVNWLLAQKGPSSGAPPPS-OH
modifications: N-terminus assumed
SMILES: CC[C@H](C)[C@H](NC(=O)[C@H](CO)NC(=O)[C@H](Cc1ccc(O)cc1)NC(=O)[C@H](CC(=O)O)NC(=O)[C@H](CO)NC(=O)[C@@H](NC(=O)[C@H](Cc1ccccc1)NC(=O)[C@@H](NC(=O)CNC(=O)[C@@H](N)CCC(=O)O)[C@@H](C)O)[C@@H](C)CC)C(=O)N[C@@H](C)C(=O)N[C@@H](CCSC)C(=O)N[C@@H](CC(=O)O)C(=O)N[C@@H](CCCCN)C(=O)N[C@H](C(=O)N[C@@H](CCCCNC(=O)COCCOCCNC(=O)COCCOCCNC(=O)COCCOCCNC(=O)CC[C@H](NC(=O)CCCCCCCCCCCCCCCCC(=O)O)C(=O)O)C(=O)N[C@@H](CCC(N)=O)C(=O)N[C@@H](CCC(N)=O)C(=O)N[C@@H](CC(=O)O)C(=O)N[C@@H](Cc1ccccc1)C(=O)N[C@H](C(=O)N[C@@H](CC(N)=O)C(=O)N[C@@H](Cc1c[nH]c2ccccc12)C(=O)N[C@@H](CC(C)C)C(=O)N[C@@H](CC(C)C)C(=O)N[C@@H](C)C(=O)N[C@@H](CCC(N)=O)C(=O)N[C@@H](CCCCN)C(=O)NCC(=O)N1CCC[C@H]1C(=O)N[C@@H](CO)C(=O)N[C@@H](CO)C(=O)NCC(=O)N[C@@H](C)C(=O)N1CCC[C@H]1C(=O)N1CCC[C@H]1C(=O)N1CCC[C@H]1C(=O)N[C@@H](CO)C(=O)O)C(C)C)[C@@H](C)CC
B2: AT435 (peptide)
peptide: SGTFISDYSIAMDKIK([AEEA-AEEA-γGlu-C16 diacid])QQDFVNWLLAQKGPSSGAPPPS-OH
modifications: N-terminus assumed
SMILES: CC[C@H](C)[C@H](NC(=O)[C@H](CO)NC(=O)[C@H](Cc1ccc(O)cc1)NC(=O)[C@H](CC(=O)O)NC(=O)[C@H](CO)NC(=O)[C@@H](NC(=O)[C@H](Cc1ccccc1)NC(=O)[C@@H](NC(=O)CNC(=O)[C@@H](N)CO)[C@@H](C)O)[C@@H](C)CC)C(=O)N[C@@H](C)C(=O)N[C@@H](CCSC)C(=O)N[C@@H](CC(=O)O)C(=O)N[C@@H](CCCCN)C(=O)N[C@H](C(=O)N[C@@H](CCCCNC(=O)COCCOCCNC(=O)COCCOCCNC(=O)CC[C@H](NC(=O)CCCCCCCCCCCCCCC(=O)O)C(=O)O)C(=O)N[C@@H](CCC(N)=O)C(=O)N[C@@H](CCC(N)=O)C(=O)N[C@@H](CC(=O)O)C(=O)N[C@@H](Cc1ccccc1)C(=O)N[C@H](C(=O)N[C@@H](CC(N)=O)C(=O)N[C@@H](Cc1c[nH]c2ccccc12)C(=O)N[C@@H](CC(C)C)C(=O)N[C@@H](CC(C)C)C(=O)N[C@@H](C)C(=O)N[C@@H](CCC(N)=O)C(=O)N[C@@H](CCCCN)C(=O)NCC(=O)N1CCC[C@H]1C(=O)N[C@@H](CO)C(=O)N[C@@H](CO)C(=O)NCC(=O)N[C@@H](C)C(=O)N1CCC[C@H]1C(=O)N1CCC[C@H]1C(=O)N1CCC[C@H]1C(=O)N[C@@H](CO)C(=O)O)C(C)C)[C@@H](C)CC
B3: AT439 (peptide)
peptide: SGTFISDYSIAMDRIK([AEEA-AEEA-γGlu-C16 diacid])QQDFVNWLLAQRGPSSGAPPPS-OH
modifications: N-terminus assumed
SMILES: CC[C@H](C)[C@H](NC(=O)[C@H](CO)NC(=O)[C@H](Cc1ccc(O)cc1)NC(=O)[C@H](CC(=O)O)NC(=O)[C@H](CO)NC(=O)[C@@H](NC(=O)[C@H](Cc1ccccc1)NC(=O)[C@@H](NC(=O)CNC(=O)[C@@H](N)CO)[C@@H](C)O)[C@@H](C)CC)C(=O)N[C@@H](C)C(=O)N[C@@H](CCSC)C(=O)N[C@@H](CC(=O)O)C(=O)N[C@@H](CCCNC(=N)N)C(=O)N[C@H](C(=O)N[C@@H](CCCCNC(=O)COCCOCCNC(=O)COCCOCCNC(=O)CC[C@H](NC(=O)CCCCCCCCCCCCCCC(=O)O)C(=O)O)C(=O)N[C@@H](CCC(N)=O)C(=O)N[C@@H](CCC(N)=O)C(=O)N[C@@H](CC(=O)O)C(=O)N[C@@H](Cc1ccccc1)C(=O)N[C@H](C(=O)N[C@@H](CC(N)=O)C(=O)N[C@@H](Cc1c[nH]c2ccccc12)C(=O)N[C@@H](CC(C)C)C(=O)N[C@@H](CC(C)C)C(=O)N[C@@H](C)C(=O)N[C@@H](CCC(N)=O)C(=O)N[C@@H](CCCNC(=N)N)C(=O)NCC(=O)N1CCC[C@H]1C(=O)N[C@@H](CO)C(=O)N[C@@H](CO)C(=O)NCC(=O)N[C@@H](C)C(=O)N1CCC[C@H]1C(=O)N1CCC[C@H]1C(=O)N1CCC[C@H]1C(=O)N[C@@H](CO)C(=O)O)C(C)C)[C@@H](C)CC
B4: AT437 (peptide)
peptide: SGTFISDYSIAMDKIK([AEEA-AEEA-γGlu-C18 diacid])QQDFVNWLLAQKGPSSGAPPPS-OH
modifications: N-terminus assumed
SMILES: CC[C@H](C)[C@H](NC(=O)[C@H](CO)NC(=O)[C@H](Cc1ccc(O)cc1)NC(=O)[C@H](CC(=O)O)NC(=O)[C@H](CO)NC(=O)[C@@H](NC(=O)[C@H](Cc1ccccc1)NC(=O)[C@@H](NC(=O)CNC(=O)[C@@H](N)CO)[C@@H](C)O)[C@@H](C)CC)C(=O)N[C@@H](C)C(=O)N[C@@H](CCSC)C(=O)N[C@@H](CC(=O)O)C(=O)N[C@@H](CCCCN)C(=O)N[C@H](C(=O)N[C@@H](CCCCNC(=O)COCCOCCNC(=O)COCCOCCNC(=O)CC[C@H](NC(=O)CCCCCCCCCCCCCCCCC(=O)O)C(=O)O)C(=O)N[C@@H](CCC(N)=O)C(=O)N[C@@H](CCC(N)=O)C(=O)N[C@@H](CC(=O)O)C(=O)N[C@@H](Cc1ccccc1)C(=O)N[C@H](C(=O)N[C@@H](CC(N)=O)C(=O)N[C@@H](Cc1c[nH]c2ccccc12)C(=O)N[C@@H](CC(C)C)C(=O)N[C@@H](CC(C)C)C(=O)N[C@@H](C)C(=O)N[C@@H](CCC(N)=O)C(=O)N[C@@H](CCCCN)C(=O)NCC(=O)N1CCC[C@H]1C(=O)N[C@@H](CO)C(=O)N[C@@H](CO)C(=O)NCC(=O)N[C@@H](C)C(=O)N1CCC[C@H]1C(=O)N1CCC[C@H]1C(=O)N1CCC[C@H]1C(=O)N[C@@H](CO)C(=O)O)C(C)C)[C@@H](C)CC

What follows are binders tested against T1, human GIP receptor (assay: cell-based or functional assay).
In the case of B1, the “cAMP antagonism” value is reported as 14 nM, the “cAMP antagonism % inhib” value is reported as 100% and the cAMP antagonism log is reported as -7.9 log M.
For B2, the “cAMP antagonism” value was 75 nM, the “cAMP antagonism % inhib” value was 100% and the cAMP antagonism log was -7.1 log M.
B3 was tested, and the “cAMP antagonism” value was 9 nM, the “cAMP antagonism % inhib” value was 100% and the cAMP antagonism log was -8 log M.
In the case of B4, the “cAMP antagonism” value is reported as 8 nM, the “cAMP antagonism % inhib” value is reported as 100% and the cAMP antagonism log is reported as -8.1 log M.

Biological target: T1, human GIP receptor
Test: cell-based or functional assay
Remark: another data set of the same source
B1 was tested, and the “cAMP antagonism” value was 35.5 nM, the “cAMP antagonism % inhib” value was 95% and the “cAMP antagonism pIC50” value was 7.5.
With B2 the “cAMP antagonism” value was 79.4 nM, the “cAMP antagonism % inhib” value was 84% and the “cAMP antagonism pIC50” value was 7.1.
For B3, the “cAMP agonism % Emax” value was 0%, the “cAMP antagonism” value was 14.7 nM and the “cAMP antagonism % inhib” value was 93%. For the same binder, the “cAMP antagonism pIC50” value was 7.8.
B4 was tested, and the “cAMP agonism % Emax” value was 0%, the “cAMP antagonism” value was 35.5 nM and the “cAMP antagonism % inhib” value was 83%. The “cAMP antagonism pIC50” value was 7.5.
